Patent US20250011363A1, “OPTIMIZED SHORTENED PEPTIDE THAT BINDS TO ACETYLCHOLINE RECEPTOR, AND USE THEREOF” (SKINMED CO., LTD., priority 2021, published 2025)

These binders were tested against acetylcholine receptor (assay: SPR, peptide at 10 uM).

Binder | Binding affinity [RU]
KKAMKR [6mer-2-1142] | 30
RITVKK [6mer-2-1160] | 23
KIDFRR [6mer-2-1149] | 21
RYPVRK [6mer-2-1151] | 43
KFMKKK [6mer-2-1147] | 35
RDMMKK [6mer-2-1120] | 28
KACWKR [6mer-2-1181] | 32
RTNAKR [6mer-2-1131] | 26
RDAFKK [6mer-2-1125] | 30
KMKKKR [6mer-2-1136] | 36
RYTEKK [6mer-2-1176] | 43
KNCMRK [6mer-2-1128] | 36
RDAWRK [6mer-2-1103] | 42
KYENRK [6mer-2-1134] | 30
RYSKRR [6mer-2-1175] | 34
KACIKK [6mer-2-1143] | 42
KPSKRR [6mer-2-1121] | 21
RKTWRK [6mer-2-1124] | 39
KNCERR [6mer-2-1172] | 36
RPWERR [6mer-2-1132] | 32
RYNHKR [6mer-2-1164] | 33
RHNDKR [6mer-2-1182] | 30
KDKVKR [6mer-2-1106] | 28
RFDGRR [6mer-2-1118] | 42
KMSERR [6mer-2-1162] | 34
RIKNRR [6mer-2-1145] | 23
RNWAKK [6mer-2-1152] | 37

Binder | Binding affinity [RU]
KICERK [6mer-2-1169] | 21
RCNFKK [6mer-2-1122] | 22
KAKAKK [6mer-2-1139] | 39
KDMGKR [6mer-2-1159] | 40
KEDMRK [6mer-2-1109] | 26
RYEARR [6mer-2-1154] | 30
RNTNRK [6mer-2-1155] | 25
RHSFRK [6mer-2-1130] | 29
KMKPKK [6mer-2-1168] | 41
KACVKK [6mer-2-1179] | 34
RHEVRR [6mer-2-1126] | 23
KTTVRK [6mer-2-1178] | 30
KHKPKR [6mer-2-1153] | 27
RAANRR [6mer-2-1180] | 34
KTDVKK [6mer-2-1150] | 42
RHSFKK [6mer-2-1161] | 27
KCTGKR [6mer-2-1141] | 32
KAHFKK [6mer-2-1138] | 42
KFTIRR [6mer-2-1170] | 25
RIKAKK [6mer-2-1165] | 30
KKKVRR [6mer-2-1108] | 36
RYTKKR [6mer-2-1104] | 38
KYSPRK [6mer-2-1115] | 39
RNNAKK [6mer-2-1105] | 28
KPNFRK [6mer-2-1113] | 43
RNTDRK [6mer-2-1157] | 37
RANWKR [6mer-2-1135] | 29

Binder | Binding affinity [RU]
KCSIKK [6mer-2-1166] | 26
REDEKK [6mer-2-1111] | 23
RITGKR [6mer-2-1129] | 42
KMNKKR [6mer-2-1140] | 29
RASEKR [6mer-2-1177] | 41
RMTKKK [6mer-2-1110] | 37
KCTVRK [6mer-2-1119] | 39
KAAEKK [6mer-2-1127] | 42
RITARR [6mer-2-1123] | 36
KEKGKR [6mer-2-1148] | 34
RKKFRK [6mer-2-1114] | 34
RCAPKR [6mer-2-1167] | 27
RCEPRK [6mer-2-1174] | 21
KMNARR [6mer-2-1156] | 35
RASWRK [6mer-2-1112] | 26
RAHERK [6mer-2-1107] | 29
RMHVKR [6mer-2-1117] | 21
KMPARR [6mer-2-1171] | 40
KMKMKK [6mer-2-1133] | 22
KMEVKK [6mer-2-1116] | 31
KCCNKK [6mer-2-1173] | 38
RDNIRK [6mer-2-1158] | 37
RFEDRK [6mer-2-1144] | 39
REWGRK [6mer-2-1146] | 32
RTDFKR [6mer-2-1137] | 22
KCHFKK [6mer-2-1163] | 37
